According to patent US20160176943A1 (INSERM INSITITUT NATIONAL DE LA SANTE ET DE LA RECHERCHE …, published 2016):
Each block holds one molecule with its values, some of them ahead of it.

Legend:
[1] = molecular target: NKG2D receptor on NK cells (UniProt P26718); assay: cell-based or functional assay
[2] = molecular target: T1, recombinant NKG2D-Fc chimeric protein (UniProt P26718 78-216); assay: NKG2D-Fc staining of COS transfectants, facs and cellular immunofluorescence
T1 construct: Bought from R&D Systems; also called NKG2D-Fc protein; recombinant NKG2D-Fc chimera protein; not shown: Fc part
T1 sequence (looked up): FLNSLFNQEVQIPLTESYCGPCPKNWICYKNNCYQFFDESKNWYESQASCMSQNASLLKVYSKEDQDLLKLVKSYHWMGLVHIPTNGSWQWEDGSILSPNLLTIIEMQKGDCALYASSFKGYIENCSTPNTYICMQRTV
Description: FIG. 10. A). MICA-B2 is a novel ligand for the NKG2D receptor. COS cells were transfected with cDNA for WT MICA or MICA isoforms. Forty-eight hours post-transfection cells welle incubated with recombinant NKG2D-Fc chimeric protein. […] Staining was analyzed by fluorescent microscopy and positive signal was converted into black and white picture, positive cells intercating with NKG2D-Fc are shown in black. COS cells transfected with the WT cDNA for MICA are used as positive controls. B) Visualisation of NKG2D binding on MICA-B2 isoform expression analyzed by confocal microscopy on COS-7 transfected cells using a recombinant NKG2D-Fc protein. Transfected cells were detected using an anti-Flag (M2) monoclonal antibody. NKG2D-Fc binding and Flag intracellular detection were achieved 48 h post-transfection before and after cell fixation and permeabilization, respectively. COS cells transfected with the WT cDNA for MICA are used as positive controls. Immunofluorescence staining was obtained using an FITC-labeled secondary antibody and shown in black and white, specific staining appears in white.
To functionally assess a role for the MICA isoforms in immune regulation, the possible interaction of MICA isoforms with NKG2D receptor, the natural receptor of full length MICA, was investigated by facs and by cellular immunofluorescence. […]

NKG2D expression on NK (NKL) cells after overnight incubation with soluble protein, flow cytometry [1]: 47.5%
Molecule: soluble recombinant isoform MICA-B2 (from UniProt Q29983 24-307) (ligand)

binding result [2]: no binding
B1: MICA-D isoform expressed on transfected cells (ligand)
chain: EPHSLRYNLTVLSGDGSVQSGFLAEVHLDGQPFLRCDRQKCRAKPQGQWAEDVLGNKTWDRETRDLTGNGKDLRMTLAHIKDQKEGKVLVLQSHWQTFHVSAVAAAAAAAAAIFVIIIFYVCCCKKKTSAAEGPELVSLQVLDQHPVGTSDHRDATQLGFQPLMSDLGSTGSTEGA
notes: also called isoform D; not shown: C-terminal FLAG tag (three copies of FLAG in 3' from the pCMV-3Tag vector)

binding result [2]: no binding
B2: MICA-B1 isoform expressed in transfected cells (ligand)
chain: EPHSLRYNLTVLSGDGSVQSGFLAEVHLDGQPFLRCDRQKCRAKPQGQWAEDVLGNKTWDRETRDLTGNGKDLRMTLAHIKDQKEVLQSSDLGHERQEFLEGRCHEDQDTLSRYACRLPAGTTAISKIRRSPEENSAPHGECHPQRGLEGQHYRDMQGFWLLSLEYHTELASGWGKVLVLQSHWQTFHVSAVAAAAAAAAAIFVIIIFYVCCCKKKTSAAEGPELVSLQVLDQHPVGTSDHRDATQLGFQPLMSDLGSTGSTEGA
notes: Alpha1 domain, novel polypeptide region, TM and CYT; also called isoform B1; not shown: C-terminal FLAG tag (three copies of FLAG in 3' from the pCMV-3Tag vector)
